Columns and labels:
TF:fVIIa = TF:fVIIa (UniProt P13726 33-295; P08709 61-466, limits assumed); experiment: cell-based or functional assay
[1] = target: T1, activated Protein C (APC) (human, UniProt P04070 43-197; P04070 212-461); experiment: ratio of rate constants, APC over fXa
T1 construct: also called human plasma APC

[2] = target: T1, activated Protein C (APC); experiment: ratio of rate constants, APC over thrombin
thrombin = thrombin (UniProt P00734 328-622); experiment: pseudo-first-order inhibition kinetics, residual chromogenic activity
[3] = target: T1, activated Protein C (APC); experiment: as above
fXa = target: T2, fXa (UniProt P00742 41-179; P00742 235-488); experiment: pseudo-first-order inhibition kinetics, residual chromogenic activity (S2222)
T2 construct: also called factor Xa
T2 sequence (P00742 41-179 limits assumed, form in doubt, chain 1 of 2): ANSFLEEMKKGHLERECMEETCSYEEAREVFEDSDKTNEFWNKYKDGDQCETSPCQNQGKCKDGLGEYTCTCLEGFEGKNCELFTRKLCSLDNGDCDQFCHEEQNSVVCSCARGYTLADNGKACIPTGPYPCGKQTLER
T2 sequence (P00742 235-488 limits assumed, form in doubt, chain 2 of 2): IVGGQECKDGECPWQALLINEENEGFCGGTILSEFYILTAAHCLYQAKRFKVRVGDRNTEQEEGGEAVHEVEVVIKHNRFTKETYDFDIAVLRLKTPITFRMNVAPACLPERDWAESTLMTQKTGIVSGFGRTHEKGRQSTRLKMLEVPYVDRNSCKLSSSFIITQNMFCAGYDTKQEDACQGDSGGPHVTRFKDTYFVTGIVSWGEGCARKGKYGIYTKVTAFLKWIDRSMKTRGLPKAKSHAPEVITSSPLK

Sequence of TF:fVIIa (P13726 33-295 limits assumed, chain 1 of 2): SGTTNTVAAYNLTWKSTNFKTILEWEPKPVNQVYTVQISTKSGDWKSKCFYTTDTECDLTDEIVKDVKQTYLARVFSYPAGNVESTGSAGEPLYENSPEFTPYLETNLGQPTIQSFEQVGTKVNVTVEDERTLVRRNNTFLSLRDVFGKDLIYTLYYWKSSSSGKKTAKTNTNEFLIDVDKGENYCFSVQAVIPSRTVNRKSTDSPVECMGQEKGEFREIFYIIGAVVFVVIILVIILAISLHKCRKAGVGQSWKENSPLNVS
Sequence of TF:fVIIa (P08709 61-466 limits assumed, chain 2 of 2): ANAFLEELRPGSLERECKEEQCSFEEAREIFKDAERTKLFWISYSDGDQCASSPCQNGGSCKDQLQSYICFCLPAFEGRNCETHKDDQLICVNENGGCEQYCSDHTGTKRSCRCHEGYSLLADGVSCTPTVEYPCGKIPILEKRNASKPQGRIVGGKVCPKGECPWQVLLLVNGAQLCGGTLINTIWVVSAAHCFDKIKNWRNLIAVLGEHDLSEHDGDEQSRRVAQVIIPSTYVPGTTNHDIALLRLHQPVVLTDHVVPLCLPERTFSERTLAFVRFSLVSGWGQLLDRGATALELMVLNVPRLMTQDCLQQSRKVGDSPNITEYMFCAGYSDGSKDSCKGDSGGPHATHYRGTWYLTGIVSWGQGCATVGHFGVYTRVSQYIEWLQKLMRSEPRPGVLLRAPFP
T1 sequence (P04070 43-197, chain 1 of 2): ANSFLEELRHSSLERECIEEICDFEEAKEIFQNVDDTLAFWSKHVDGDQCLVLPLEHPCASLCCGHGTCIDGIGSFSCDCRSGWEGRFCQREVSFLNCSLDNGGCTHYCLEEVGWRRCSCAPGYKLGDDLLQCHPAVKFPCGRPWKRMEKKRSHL
T1 sequence (P04070 212-461, chain 2 of 2): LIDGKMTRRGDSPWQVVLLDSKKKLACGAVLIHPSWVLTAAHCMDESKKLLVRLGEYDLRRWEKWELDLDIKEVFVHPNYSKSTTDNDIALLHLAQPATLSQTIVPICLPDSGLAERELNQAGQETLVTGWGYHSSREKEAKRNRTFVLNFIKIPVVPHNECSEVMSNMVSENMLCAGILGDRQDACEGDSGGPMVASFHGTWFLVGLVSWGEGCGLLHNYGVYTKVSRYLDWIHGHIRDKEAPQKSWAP

Binder	PT (s), 5 µM serpin (TF:fVIIa) [s]	inhibition of APC/fXa [1] [fold]	inhibition of APC/thrombin [2] [fold]	second-order rate constant of inhibition (thrombin) [M⁻¹ s⁻¹]	second-order rate constant of inhibition [3] [M⁻¹ s⁻¹]	second-order rate constant of inhibition (fXa) [M⁻¹ s⁻¹]
FL α1AT Pitts C232S P2KP1′N (other, E. coli, purified; also called 3.B2; 2.H5) SDPQGDAAQKTDTSHHDQDHPTFNKITPNLAEFAFSLYRQLAHQSNSTNIFFSPVSIATAFAMLSLGTKADTHDEILEGLNFNLTEIPEAQIHEGFQELLRTLNQPDSQLQLTTGNGLFLSEGLKLVDKFLEDVKKLYHSEAFTVNFGDTEEAKKQINDYVEKGTQGKIVDLVKELDRDTVFALVNYIFFKGKWERPFEVKDTEEEDFHVDQVTTVKVPMMKRLGMFNIQHSKKLSSWVLLMKYLGNATAIFFLPDEGKLQHLENELTHDIITKFLENEDRRSASLHLPKLSITGTYDLKSVLGQLGITKVFSNGADLSGVTEEAPLKLSKAVHKAVLTIDEKGTEAAGAMFLEAIKRNIPPEVKFNKPFVFLMIEQNTKSPLFMGKVVNPTQK	27.8	41.5	2520	15	37800	910
FL α1AT Pitts C232S P2TP1′N (other, E. coli, purified; also called 4.G9) SDPQGDAAQKTDTSHHDQDHPTFNKITPNLAEFAFSLYRQLAHQSNSTNIFFSPVSIATAFAMLSLGTKADTHDEILEGLNFNLTEIPEAQIHEGFQELLRTLNQPDSQLQLTTGNGLFLSEGLKLVDKFLEDVKKLYHSEAFTVNFGDTEEAKKQINDYVEKGTQGKIVDLVKELDRDTVFALVNYIFFKGKWERPFEVKDTEEEDFHVDQVTTVKVPMMKRLGMFNIQHSKKLSSWVLLMKYLGNATAIFFLPDEGKLQHLENELTHDIITKFLENEDRRSASLHLPKLSITGTYDLKSVLGQLGITKVFSNGADLSGVTEEAPLKLSKAVHKAVLTIDEKGTEAAGAMFLEAITRNIPPEVKFNKPFVFLMIEQNTKSPLFMGKVVNPTQK	–	–	231	270	62400	–
FL α1AT Pitts C232S P2KP1′H (other, E. coli, purified; also called 1.A12) SDPQGDAAQKTDTSHHDQDHPTFNKITPNLAEFAFSLYRQLAHQSNSTNIFFSPVSIATAFAMLSLGTKADTHDEILEGLNFNLTEIPEAQIHEGFQELLRTLNQPDSQLQLTTGNGLFLSEGLKLVDKFLEDVKKLYHSEAFTVNFGDTEEAKKQINDYVEKGTQGKIVDLVKELDRDTVFALVNYIFFKGKWERPFEVKDTEEEDFHVDQVTTVKVPMMKRLGMFNIQHSKKLSSWVLLMKYLGNATAIFFLPDEGKLQHLENELTHDIITKFLENEDRRSASLHLPKLSITGTYDLKSVLGQLGITKVFSNGADLSGVTEEAPLKLSKAVHKAVLTIDEKGTEAAGAMFLEAIKRHIPPEVKFNKPFVFLMIEQNTKSPLFMGKVVNPTQK	27.4	46.5	–	–	28800	620
FL α1AT Pitts C232S P1′R (other, E. coli, purified; also called P1′.A11) SDPQGDAAQKTDTSHHDQDHPTFNKITPNLAEFAFSLYRQLAHQSNSTNIFFSPVSIATAFAMLSLGTKADTHDEILEGLNFNLTEIPEAQIHEGFQELLRTLNQPDSQLQLTTGNGLFLSEGLKLVDKFLEDVKKLYHSEAFTVNFGDTEEAKKQINDYVEKGTQGKIVDLVKELDRDTVFALVNYIFFKGKWERPFEVKDTEEEDFHVDQVTTVKVPMMKRLGMFNIQHSKKLSSWVLLMKYLGNATAIFFLPDEGKLQHLENELTHDIITKFLENEDRRSASLHLPKLSITGTYDLKSVLGQLGITKVFSNGADLSGVTEEAPLKLSKAVHKAVLTIDEKGTEAAGAMFLEAIPRRIPPEVKFNKPFVFLMIEQNTKSPLFMGKVVNPTQK	–	–	194	680	132000	–
FL α1AT Pitts C232S P2TP1′Y (other, E. coli, purified; also called 3.A10) SDPQGDAAQKTDTSHHDQDHPTFNKITPNLAEFAFSLYRQLAHQSNSTNIFFSPVSIATAFAMLSLGTKADTHDEILEGLNFNLTEIPEAQIHEGFQELLRTLNQPDSQLQLTTGNGLFLSEGLKLVDKFLEDVKKLYHSEAFTVNFGDTEEAKKQINDYVEKGTQGKIVDLVKELDRDTVFALVNYIFFKGKWERPFEVKDTEEEDFHVDQVTTVKVPMMKRLGMFNIQHSKKLSSWVLLMKYLGNATAIFFLPDEGKLQHLENELTHDIITKFLENEDRRSASLHLPKLSITGTYDLKSVLGQLGITKVFSNGADLSGVTEEAPLKLSKAVHKAVLTIDEKGTEAAGAMFLEAITRYIPPEVKFNKPFVFLMIEQNTKSPLFMGKVVNPTQK	–	–	248	23	5700	–
FL α1AT Pitts C232S P2R (other, E. coli, purified; also called P2.F10; P2.G8) SDPQGDAAQKTDTSHHDQDHPTFNKITPNLAEFAFSLYRQLAHQSNSTNIFFSPVSIATAFAMLSLGTKADTHDEILEGLNFNLTEIPEAQIHEGFQELLRTLNQPDSQLQLTTGNGLFLSEGLKLVDKFLEDVKKLYHSEAFTVNFGDTEEAKKQINDYVEKGTQGKIVDLVKELDRDTVFALVNYIFFKGKWERPFEVKDTEEEDFHVDQVTTVKVPMMKRLGMFNIQHSKKLSSWVLLMKYLGNATAIFFLPDEGKLQHLENELTHDIITKFLENEDRRSASLHLPKLSITGTYDLKSVLGQLGITKVFSNGADLSGVTEEAPLKLSKAVHKAVLTIDEKGTEAAGAMFLEAIRRSIPPEVKFNKPFVFLMIEQNTKSPLFMGKVVNPTQK	27.8	12.8	1460	42	61100	4790
FL α1AT Pitts C232S P2RP1′C (other, E. coli, purified; also called 1.B11) SDPQGDAAQKTDTSHHDQDHPTFNKITPNLAEFAFSLYRQLAHQSNSTNIFFSPVSIATAFAMLSLGTKADTHDEILEGLNFNLTEIPEAQIHEGFQELLRTLNQPDSQLQLTTGNGLFLSEGLKLVDKFLEDVKKLYHSEAFTVNFGDTEEAKKQINDYVEKGTQGKIVDLVKELDRDTVFALVNYIFFKGKWERPFEVKDTEEEDFHVDQVTTVKVPMMKRLGMFNIQHSKKLSSWVLLMKYLGNATAIFFLPDEGKLQHLENELTHDIITKFLENEDRRSASLHLPKLSITGTYDLKSVLGQLGITKVFSNGADLSGVTEEAPLKLSKAVHKAVLTIDEKGTEAAGAMFLEAIRRCIPPEVKFNKPFVFLMIEQNTKSPLFMGKVVNPTQK	–	–	722	34	24600	–
FL α1AT Pitts C232S P1′E (other, E. coli, purified; also called P1′.H8; P1′.F10) SDPQGDAAQKTDTSHHDQDHPTFNKITPNLAEFAFSLYRQLAHQSNSTNIFFSPVSIATAFAMLSLGTKADTHDEILEGLNFNLTEIPEAQIHEGFQELLRTLNQPDSQLQLTTGNGLFLSEGLKLVDKFLEDVKKLYHSEAFTVNFGDTEEAKKQINDYVEKGTQGKIVDLVKELDRDTVFALVNYIFFKGKWERPFEVKDTEEEDFHVDQVTTVKVPMMKRLGMFNIQHSKKLSSWVLLMKYLGNATAIFFLPDEGKLQHLENELTHDIITKFLENEDRRSASLHLPKLSITGTYDLKSVLGQLGITKVFSNGADLSGVTEEAPLKLSKAVHKAVLTIDEKGTEAAGAMFLEAIPREIPPEVKFNKPFVFLMIEQNTKSPLFMGKVVNPTQK	–	–	19.9	150	2990	–
